# US20250101135A1 (Hoffmann-La Roche, published 2025)
# T1: human CEA (CEACAM5) on tumor cells (human, UniProt P06731 35-685)
# T1 construct: also called MKN45; MKN-45
# T1 sequence: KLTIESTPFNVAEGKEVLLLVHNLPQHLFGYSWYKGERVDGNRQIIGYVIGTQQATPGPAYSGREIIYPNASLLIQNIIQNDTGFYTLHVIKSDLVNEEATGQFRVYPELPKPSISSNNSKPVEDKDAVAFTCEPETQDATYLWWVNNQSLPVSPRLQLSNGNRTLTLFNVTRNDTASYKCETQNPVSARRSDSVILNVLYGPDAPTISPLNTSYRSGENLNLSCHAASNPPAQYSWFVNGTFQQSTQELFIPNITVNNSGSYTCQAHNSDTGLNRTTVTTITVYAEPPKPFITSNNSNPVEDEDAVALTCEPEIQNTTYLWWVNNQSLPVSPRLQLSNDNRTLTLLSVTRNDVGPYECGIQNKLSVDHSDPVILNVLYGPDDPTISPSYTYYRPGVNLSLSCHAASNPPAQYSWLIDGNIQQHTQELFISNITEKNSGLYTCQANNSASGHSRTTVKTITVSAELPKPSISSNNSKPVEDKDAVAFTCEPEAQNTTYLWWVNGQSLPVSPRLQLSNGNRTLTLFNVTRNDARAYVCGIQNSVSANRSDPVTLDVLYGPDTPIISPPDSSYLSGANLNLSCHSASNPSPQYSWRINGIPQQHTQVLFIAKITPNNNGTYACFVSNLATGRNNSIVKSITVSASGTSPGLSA
# T2: human CD19 on B cell lymphoma and leukemia cell lines (human, UniProt P15391 20-556)
# T2 construct: also called SU-DHL-8; Nalm6
# T2 sequence: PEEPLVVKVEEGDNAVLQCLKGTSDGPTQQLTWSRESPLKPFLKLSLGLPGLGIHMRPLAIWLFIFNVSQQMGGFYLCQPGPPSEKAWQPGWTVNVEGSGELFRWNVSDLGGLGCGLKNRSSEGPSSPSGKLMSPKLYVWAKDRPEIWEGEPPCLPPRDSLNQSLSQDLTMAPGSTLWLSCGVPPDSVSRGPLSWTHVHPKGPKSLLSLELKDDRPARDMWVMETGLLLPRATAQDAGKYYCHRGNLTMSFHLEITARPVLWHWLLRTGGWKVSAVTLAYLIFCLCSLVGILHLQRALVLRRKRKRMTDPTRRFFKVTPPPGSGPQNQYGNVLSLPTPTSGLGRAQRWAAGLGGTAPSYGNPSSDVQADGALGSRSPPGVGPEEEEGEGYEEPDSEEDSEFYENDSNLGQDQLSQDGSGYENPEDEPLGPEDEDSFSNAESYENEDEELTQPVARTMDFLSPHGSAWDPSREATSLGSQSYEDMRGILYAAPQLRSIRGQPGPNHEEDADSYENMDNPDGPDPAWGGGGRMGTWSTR
# Key:
# [1] = biological target: T1, human CEA (CEACAM5) on tumor cells; experiment: flow cytometry on CEA-expressing MKN45 cells
# Description: Cells were harvested, counted, checked for viability and re-suspended at 2×10⁶ cells/ml in FACS buffer (100 μl PBS 0.1% BSA). […] Binding curves and EC50 values were obtained and calculated using GraphPadPrism5.
# [2] = biological target: T3, monomeric human CD19 antigen Fc(kih) fusion molecule (human, UniProt P0DOX5 223-449 = IgG part); experiment: SPR Biacore T200, captured via anti-human Fab, human CD19-Fc(kih) analyte
# T3 construct: also called monomeric CD19-Fc; human CD19-Fc(kih)
# Description: Anti-human Fab antibody (Biacore, Freiburg/Germany) was directly coupled on a CM5 chip at pH 5.0 using the standard amine coupling kit (Biacore, Freiburg/Germany). The immobilization level was approximately 8000 RU. […] Recombinant human CD19-Fc(kih) was passed at a concentration range from 7.8 to 500 nM (2-fold dilution) with a flow of 30 μL/minutes through the flow cells over 120 seconds. The dissociation was monitored for 120/1800 seconds. Bulk refractive index differences were corrected for by subtracting the response obtained on reference flow cell.
# Affinity constants for the interaction were determined by fitting to a 1:1 Langmuir binding.
# [3] = biological target: T2, human CD19 on B cell lymphoma and …; experiment: flow cytometry on SU-DHL-8 cells
# Description: (§1) Cells were washed once with 200 μL DPBS and pellets were resuspended. […] Cells were washed twice with 200 μL 4° C. FACS buffer and then resuspended in 50 μL/well DPBS containing 1% formaldehyde. The same or the next day cells were resuspended in 100 μL FACS-buffer and acquired using 5-laser LSR-FORTESSA® (BD Bioscience with DIVA software) or 3-laser Miltenyi Quant Analyzer 10 (Mitenyi Biotec) and Flow Jo (FlowJo X 10.0.7).
# [4] = biological target: T4, human 4-1BB (CD137) on cells (human, UniProt Q07011 24-255); experiment: flow cytometry, activated human PBMC, CD4+ T cells (panel title MFI CD4), PE anti-human IgG Fc secondary
# T4 construct: whole, on cells; also called 4-1BB+CD8+; 4-1BB+CD4+
# Excerpt: Gates were set on living CD45+CD3+CD4+ or CD45+CD3+CD8+ T cells and MFI of PE-conjugated AffiniPure anti-human IgG IgG Fcγ-fragment-specific goat F(ab′)2 fragment were blotted against the titrated concentration of targeted split trimeric 4-1BB ligand Fc fusion variants.
# [5] = biological target: T2, human CD19 on B cell lymphoma and …; experiment: flow cytometry on Toledo cells
# Description: as §1
# [6] = biological target: T2, human CD19 on B cell lymphoma and …; experiment: flow cytometry on OCI-Ly18 cells
# Description: as §1
# [7] = biological target: T2, human CD19 on B cell lymphoma and …; experiment: flow cytometry on Nalm6 cells
# Description: as §1
# T4 sequence (Q07011 24-255): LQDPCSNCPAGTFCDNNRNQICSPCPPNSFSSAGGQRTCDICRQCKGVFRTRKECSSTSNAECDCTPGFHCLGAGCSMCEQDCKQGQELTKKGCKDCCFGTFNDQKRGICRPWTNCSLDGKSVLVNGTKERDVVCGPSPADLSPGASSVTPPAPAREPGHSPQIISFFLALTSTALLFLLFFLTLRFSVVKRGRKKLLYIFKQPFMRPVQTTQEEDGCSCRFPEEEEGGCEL
Binder,EC50 [1] [µg/mL],Kd [2] [nM],koff [2] [s⁻¹],kon [2] [M⁻¹ s⁻¹],EC50 [3] [nM],binding result [4],EC50 [5] [nM],EC50 [6] [nM],EC50 [7] [nM]
"Humanized variant 1 of T84.66 IgG (T84.66-LCHA) (antibody, V domains shown, IgG) VH: QVQLVQSGAEVKKPGSSVKVSCKASGFNIKDTYMHWVRQAPGQGLEWMGRIDPANGNSKYVPKFQGRVTITADTSTSTAYMELSSLRSEDTAVYYCAPFGYYVSDYAMAYWGQGTLVTVSS VL: EIVLTQSPATLSLSPGERATLSCRAGESVDIFGVGFLHWYQQKPGQAPRLLIYRASNRATGIPARFSGSGSGTDFTLTISSLEPEDFAVYYCQQTNEDPYTFGQGTKLEIK",1.5,–,–,–,–,–,–,–,–
"anti-CD19(8B8-018) huIgG1 PGLALA (control G) (antibody, V domains shown) VH: QVQLVQSGAEVKKPGASVKVSCKASGYTFTDYIMHWVRQAPGQGLEWMGYINPYNDGSKYTEKFQGRVTMTSDTSISTAYMELSRLRSDDTAVYYCARGTYYYGSALFDYWGQGTTVTVSS VL: DIVMTQTPLSLSVTPGQPASISCKSSQSLENPNGNTYLNWYLQKPGQSPQLLIYRVSKRFSGVPDRFSGSGSGTDFTLKISRVEAEDVGVYYCLQLTHVPYTFGQGTKLEIKR",–,12.3,0.000261,21200,0.09,no binding (tested: about 300 nM),0.06,0.07,0.1
